Measurements taken from the Human Domainome abundance scans (Beltran et al. 2025).
± gives the uncertainty stated by the source.

B1: Cold shock protein CspB, residues 1 to 66; numbered along this chain, P41016 (parent)
chain: MQRGKVKWFNNEKGYGFIEVEGGSDVFVHFTAIQGEGFKTLEEGQEVSFEIVQGNRGPQAANVVKL

Variants of: B1
Test: abundance fitness (aPCA) (normalised: wild type 0, dead -1); higher = more abundant; growth selection in yeast, the domain comes from the species named
Settings: Bacillus caldolyticus

| Variant | abundance fitness |
| --- | --- |
| V20Q | 0.046 ± 0.057 |
| V20W | 0.056 ± 0.064 |
| V20M | -0.018 ± 0.049 |
| V20F | -0.092 ± 0.056 |
| V20I | -0.014 ± 0.056 |
| V20T | 0.008 ± 0.044 |
| V20Y | -0.001 ± 0.061 |
| V20R | -0.006 ± 0.053 |
| V20E | -0.002 ± 0.043 |
| P58Q | -0.015 ± 0.052 |
| P58H | -0.142 ± 0.12 |
| P58I | -0.055 ± 0.072 |
| P58V | -0.021 ± 0.035 |
| P58W | -0.016 ± 0.047 |
| P58R | -0.029 ± 0.044 |
| P58D | -0.037 ± 0.059 |
| Q53N | 0.004 ± 0.071 |
| Q53V | -0.001 ± 0.04 |
| Q53D | 0.022 ± 0.093 |
| Q53P | -0.092 ± 0.041 |
| Q53S | -0.03 ± 0.036 |
| E43Y | -0.017 ± 0.078 |
| E43N | 0.01 ± 0.076 |
| E43V | -0.033 ± 0.05 |

| Variant | abundance fitness |
| --- | --- |
| E43S | -0.014 ± 0.038 |
| E43R | 0.032 ± 0.039 |
| V47A | -0.215 ± 0.25 |
| V47S | -0.866 ± 0.38 |
| V6A | -0.088 ± 0.035 |
| V6R | -0.971 ± 0.052 |
| V6H | -0.863 ± 0.084 |
| V6E | -1.02 ± 0.091 |
| Q45P | -0.655 ± 0.051 |
| Q45G | 0.032 ± 0.042 |
| Q45A | 0.021 ± 0.042 |
| Q45E | -0.003 ± 0.047 |
| Q45W | -0.023 ± 0.034 |
| S48L | -0.035 ± 0.032 |
| S48M | 0.026 ± 0.05 |
| S48E | 0.027 ± 0.054 |
| S48D | 0.004 ± 0.06 |
| S48F | -0.008 ± 0.063 |
| S48I | -0.028 ± 0.074 |
| D25S | -0.053 ± 0.032 |
| D25P | -0.093 ± 0.036 |
| D25Y | -0.231 ± 0.06 |
| D25V | -0.141 ± 0.035 |
| D25H | -0.102 ± 0.064 |

| Variant | abundance fitness |
| --- | --- |
| D25W | -0.26 ± 0.036 |
| D25E | -0.082 ± 0.043 |
| K5F | -0.008 ± 0.061 |
| K5R | -0.035 ± 0.026 |
| K5S | -0.027 ± 0.034 |
| K5W | -0.052 ± 0.03 |
| K5M | -0.069 ± 0.039 |
| G44K | -0.041 ± 0.055 |
| G44E | -0.05 ± 0.054 |
| G44M | -0.043 ± 0.047 |
| G44L | -0.076 ± 0.031 |
| G44R | -0.013 ± 0.034 |
| G44N | -0.086 ± 0.1 |
| G44P | -0.311 ± 0.051 |
| G44D | 0.019 ± 0.099 |
| I18G | -1.07 ± 0.15 |
| I18H | -0.812 ± 0.12 |
| I18D | -1.08 ± 0.31 |
| R56G | -0.081 ± 0.039 |
| R56V | -0.1 ± 0.04 |
| R56E | -0.066 ± 0.053 |
| R56A | -0.069 ± 0.049 |
| R56F | -0.181 ± 0.05 |
| R56I | -0.143 ± 0.093 |

| Variant | abundance fitness |
| --- | --- |
| N11D | 0.028 ± 0.06 |
| N11R | -0.017 ± 0.038 |
| N11G | -0.071 ± 0.038 |
| N11T | -0.025 ± 0.044 |
| N11E | -0.027 ± 0.068 |
| Q34H | -0.123 ± 0.15 |
| Q34K | 0.01 ± 0.053 |
| Q34D | 0.079 ± 0.11 |
| Q34Y | -0.073 ± 0.082 |
| Q34M | 0.006 ± 0.042 |
| M1G | -0.064 ± 0.05 |
| M1R | -0.096 ± 0.047 |
| M1T | -0.03 ± 0.057 |
| M1K | -0.1 ± 0.069 |
| M1I | -0.006 ± 0.075 |
| M1L | -0.044 ± 0.044 |
| E36R | 0.006 ± 0.039 |
| A60M | -0.752 ± 0.062 |
| V28F | -0.062 ± 0.058 |
| V28Q | -0.901 ± 0.084 |
| V28M | -0.153 ± 0.055 |
| V28L | -0.107 ± 0.029 |
| V28H | -1.04 ± 0.21 |
| K13N | -0.106 ± 0.068 |

| Variant | abundance fitness |
| --- | --- |
| K13H | 0 ± 0.084 |
| K13P | -0.154 ± 0.036 |
| K13W | -0.089 ± 0.043 |
| E46W | -0.035 ± 0.043 |
| E46R | -0.014 ± 0.029 |
| E46H | -0.043 ± 0.059 |
| E46G | -0.017 ± 0.04 |
| E46D | -0.153 ± 0.084 |
| E46Q | -0.012 ± 0.051 |
| G23P | -0.011 ± 0.045 |
| G23M | 0 ± 0.048 |
| G23V | -0.021 ± 0.038 |
| G23D | 0.026 ± 0.073 |
| G23A | 0.03 ± 0.046 |
| G23L | -0.003 ± 0.027 |
| G54N | -0.11 ± 0.12 |
| G54K | -0.038 ± 0.098 |
| G54P | -0.308 ± 0.062 |
| G54D | -0.07 ± 0.067 |
| G54S | -0.026 ± 0.034 |
| G54R | -0.044 ± 0.037 |
| G54M | -0.236 ± 0.18 |
| G54E | -0.106 ± 0.059 |
| W8R | -0.075 ± 0.42 |

| Variant | abundance fitness |
| --- | --- |
| A61S | 0.008 ± 0.04 |
| A61N | -0.061 ± 0.063 |
| A61V | -0.06 ± 0.06 |
| A61E | -0.051 ± 0.048 |
| A61D | -0.024 ± 0.073 |
| A61P | -0.828 ± 0.062 |
| A61W | -0.003 ± 0.058 |
| A61K | 0.02 ± 0.046 |
| R3C | -0.076 ± 0.059 |
| R3M | 0.019 ± 0.051 |
| R3V | -0.013 ± 0.034 |
| H29I | -0.538 ± 0.16 |
| L66S | -0.016 ± 0.04 |
| L66A | -0.055 ± 0.065 |
| L66Y | -0.054 ± 0.12 |
| L66P | -0.022 ± 0.043 |
| L66W | 0.004 ± 0.05 |
| K65G | 0.023 ± 0.074 |
| K65H | 0.014 ± 0.06 |
| K65F | -0.098 ± 0.05 |
| K65I | 0.04 ± 0.076 |
| E21A | 0.017 ± 0.048 |
| E21Q | -0.007 ± 0.066 |
| E21T | 0.014 ± 0.055 |

| Variant | abundance fitness |
| --- | --- |
| E21D | -0.028 ± 0.076 |
| E21K | -0.017 ± 0.066 |
| E21S | -0.009 ± 0.036 |
| E21G | 0.02 ± 0.047 |
| N55F | 0.046 ± 0.43 |
| N55R | -0.075 ± 0.094 |
| N55C | -0.089 ± 0.17 |
| N55L | -0.035 ± 0.11 |
| N55T | -0.256 ± 0.18 |
| N55W | 0.002 ± 0.22 |
| I51F | -0.082 ± 0.079 |
| I51T | -0.033 ± 0.048 |
| I51R | -0.004 ± 0.034 |
| I51M | 0.023 ± 0.044 |
| I51G | -0.079 ± 0.042 |
| K7V | -0.034 ± 0.028 |
| K7N | -0.016 ± 0.04 |
| K7G | -0.106 ± 0.031 |
| K7W | -0.49 ± 0.057 |
| K7F | -0.3 ± 0.038 |
| K7T | -0.052 ± 0.032 |
| K7S | -0.033 ± 0.026 |
| N10C | -0.027 ± 0.048 |
